The experiment addresses T1, mouse CD73 (SEQ ID NO: 71) (Mus musculus, UniProt Q61503).
T1 construct: purchased BPS Bioscience
T1 sequence (Q61503 29-551): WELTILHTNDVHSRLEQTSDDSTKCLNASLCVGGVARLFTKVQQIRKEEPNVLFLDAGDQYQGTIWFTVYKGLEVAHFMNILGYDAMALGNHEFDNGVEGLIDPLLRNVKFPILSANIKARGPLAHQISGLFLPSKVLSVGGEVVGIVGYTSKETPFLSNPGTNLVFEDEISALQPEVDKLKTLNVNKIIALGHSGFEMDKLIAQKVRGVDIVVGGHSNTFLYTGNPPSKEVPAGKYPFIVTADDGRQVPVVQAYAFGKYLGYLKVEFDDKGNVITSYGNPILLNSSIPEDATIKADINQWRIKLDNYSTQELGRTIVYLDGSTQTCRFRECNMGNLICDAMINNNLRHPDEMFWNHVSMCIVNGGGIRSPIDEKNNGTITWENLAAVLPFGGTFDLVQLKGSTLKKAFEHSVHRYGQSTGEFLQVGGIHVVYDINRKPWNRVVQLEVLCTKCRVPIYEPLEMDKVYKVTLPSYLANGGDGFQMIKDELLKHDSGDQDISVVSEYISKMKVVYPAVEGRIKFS
Description: SPR (Biacore 8K) binding affinity and kinetics to mouse CD73. The procedure: The SPR running buffer (10 mM HEPES, 150 mM NaCl, 3 mM EDTA and 0.05% v/v Surfactant P20, pH 7.4) was prepared from 10×HBS-EP Buffer (GE Healthcare). Anti-human Fc antibodies (GE Healthcare) were immobilized via amine coupling on all sixteen flow cells of an S series sensor chip CM5 (GE Healthcare). The immobilization levels were ˜9000 RU for all flow cells. The desired capturing level of anti-CD73 antibody was achieved by flowing appropriate concentration of anti-CD73 antibody through the active flow cell of each channel. The non-cleavable ADP analogue APCP (adenosine-5′-(α,β-methylene) diphosphate) with the presence of Zn^2+ can be used to shift the CD73 conformational equilibrium from open towards closed. Therefore, recombinant CD73 was incubated with SPR running buffer in the presence of 100 μM APCP and 10 μM ZnCl2 (closed SPR running buffer) to study the binding of anti-CD73 antibody to the CD73 in the closed conformation. To achieve this, the ABA injection feature in Biacore 8K was used. For open conformation, the ABA injection sequence started with 60 seconds injection of running buffer. Then, CD73 3-fold serial dilution concentration series prepared from CD73 stock (BPS Bioscience) and running buffer were injected for 180 seconds immediately followed by running buffer for 240 seconds. […]

B1: CL25: chimeric anti-human CD73 monoclonal antibody, murine VH SEQ ID NO:26 and VL SEQ ID NO:27 with human IgG1 Fc (antibody, V domains shown)
VH: QVQLQQSGAELARPGASVKLSCRASGYTFTSYGLSWVKQRTGQGLEWIGEIYPGSGNTYYNEKFKGKATLTADKSSSTAYMELRSLTSEDSAVYFCARYDYLGSSYGFDYWGQGTTLTVSS
VL: DIVMTQSHKFMSTSVGDRVSITCKASQDVSTAVAWYQQKPGQSPKLLIYSASYRYNGVPDRFTGSGSGTDFTFTISSVQAEDLAVYYCQQHYNTPYTFGGGTKLEIK
modifications: human IgG1 Fc constant regions without entry
As to B1, the KD entry is “No Binding” (murine CD73, closed conformation (merged ka/kd/KD cell)) and “No Binding” (murine CD73, open conformation (merged ka/kd/KD cell where no binding)).

These data come from patent publication US12060433B2, “CD73 inhibitor and A2A/A2B adenosine receptor inhibitor combination therapy” (Incyte Corporation, priority 2020, dated 2024).
